# Assays:
# [1] = biological target: hPD1(25-167)-Myc-TVMV-His (human) (UniProt Q15116); test: SPR (Biacore T200), hPD1(25-167)-His on chip, MIH4 analyte, no PDL-1
# [2] = biological target: hPD1(25-167)-Myc-TVMV-His (human) (UniProt Q15116); test: SPR (Biacore T200), hPD1(25-167)-His coupled to CM5 chip, MIH4 0.195-50 nM as analyte
# [3] = biological target: hPD1(25-167)-Myc-TVMV-His (human) (UniProt Q15116); test: SPR (Biacore T200), hPD1(25-167)-His on chip, MIH4 analyte, in the presence of PDL-1 ('2M' [sic])
# [4] = biological target: hPD1(25-167)-3S-IG (human) (UniProt Q15116); test: SPR (Biacore T200), hPD1(25-167)-3S-IG on chip, MIH4 analyte, no PDL-1
# [5] = biological target: T1, recombinant human PDL-1 (human, UniProt Q9NZQ7 19-239); test: SPR (ProteOn XPR36), hPD1(25-167)-His captured by His-tag on HTG chip, hPDL-1 0.125-2 µM as analyte, equilibrium analysis
# T1 construct: Bought (R&D Systems); whole entry named; also called hPDL-1; soluble human PDL-1
# T1 sequence (Q9NZQ7 19-239 limits assumed): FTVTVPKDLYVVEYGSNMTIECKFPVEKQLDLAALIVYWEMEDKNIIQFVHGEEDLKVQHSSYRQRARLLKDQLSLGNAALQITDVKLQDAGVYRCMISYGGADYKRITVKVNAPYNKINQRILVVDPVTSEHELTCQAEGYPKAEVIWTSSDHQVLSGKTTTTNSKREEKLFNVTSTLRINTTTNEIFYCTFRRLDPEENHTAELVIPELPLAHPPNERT
# Method: The surface was activated by injecting nickel (II) ions at 30 μl/min for 120 s. All analyses were performed at 25° C. in a PBS-0.05% TWEEN® solution.
# The surface was regenerated with 300 mM EDTA (pH 8.5) following BioRad's recommendations. The binding data were analyzed using the PROTEON MANAGER™ Software from Bio-Rad.
# Soluble, human PDL-1 was injected into the mobile phase as an analyte.
Molecule,Kd [1] [nM],koff [1] [s⁻¹],kon [1] [M⁻¹ s⁻¹],response level (RU) [2] [RU],Kd [3] [nM],koff [3] [s⁻¹],kon [3] [M⁻¹ s⁻¹],Kd [4] [nM],koff [4] [s⁻¹],kon [4] [M⁻¹ s⁻¹],Kd [5] [nM]
MIH4 (antibody),2.8,0.00038,130000,0.2 to 49,2.9,0.00034,120000,0.5,0.00024,480000,–
"hPD1(25-167)-Myc-TVMV-His (receptor, glycosylated (HEK293 expression), range 25-167; Expressed in HEK293-6E cells; glycosylated monomer in solution by SEC-MALS; also called hPD1(25-167)-His; hPD-1(25-167)-His) LDSPDRPWNPPTFSPALLVVTEGDNATFTCSFSNTSESFVLNWYRMSPSNQTDKLAAFPEDRSQPGQDCRFRVTQLPNGRDFHMSVVRARRNDSGTYLCGAISLAPKAQIKESLRAELRVTERRAEVPTAHPSPSPRPAGQFQEQKLISEEDLGSSETVRFQGHHHHHH",–,–,–,–,–,–,–,–,–,–,2800
